The record followed here is article PMC7160132.

In this data set the test system is XPO5-His6 (Exportin-5) (Homo sapiens). In words: EMSA. Particulars: no RanGTP, 20 mM HEPES pH 7.3, 150 mM K acetate, 2 mM Mg acetate, 0.05% NP-40, 7 mM 2-mercaptoethanol, 1.5 ug/mL poly dIdC, 0.2% BSA, 25 C 45 min, then 0.3 ug heparin ….

Regarding pri-mir-19a, under “two complexes with increasing XPO5”, the Kd was 14.6 nM. As for pri-mir-15b, the Kd (single shifted complex) was 9.57 nM.

Turning to vtRNA1-1, the Kd (1 nM RNA, super-shift at high XPO5) amounted to 36.3 nM.
